Results reported in patent US20240124543A1.
Like-named read-outs stand apart in the source and are kept apart here.

Experiments:
Assay in all cases: cell-based or functional assay
[1] = target: TGFβ1 (R&D systems) (UniProt P01137)
[2] = target: TGFβ1 (R&D systems) (UniProt P01137); remark: listed apart in the source
[3] = target: IL2Rαβγ on CTLL2 cells
[4] = target: IL2Rβ and common γ chain on 32Dβ cells
[5] = target: IL2Rβ and common γ chain on 32Dβ cells; remark: listed apart in the source

UniProt P01137, sequence (P01137 279-390 limits assumed): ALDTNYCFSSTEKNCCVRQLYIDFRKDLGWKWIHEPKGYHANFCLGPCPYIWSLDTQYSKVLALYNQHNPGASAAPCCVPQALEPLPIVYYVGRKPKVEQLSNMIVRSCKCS

| IC50, inhibition of TGFβ1 activity in HEK-Blue TGFβ cells [1] [nM] | IC50, inhibition of TGFβ1 activity in HEK-Blue TGFβ cells [2] [nM] | EC50, CTLL2 cell proliferation (PrestoBlue) [3] [nM] | EC50, CTLL2 cell proliferation (WST1) [3] [nM] | EC50 (printed EC:), 32Dβ cell proliferation (WST1) [4] [nM] | EC50, 32Dβ cell proliferation (WST1) [4] [nM] | EC50, 32Dβ cell proliferation (WST1) [5] [nM] | Substance |
| --- | --- | --- | --- | --- | --- | --- | --- |
| 0.559 | 0.461 |  |  |  |  |  | Human recombinant TGFβRII/Fc (from UniProt P37173 24-159) (Fc fusion) |
|  |  | 0.00495 | 0.00622 | 0.0166 | 0.0166 | 0.0106 | human recombinant IL-15 (from UniProt P40933 49-162) (ligand) |
